According to US20250195685A1 (CAPSTAN THERAPEUTICS, published 2025):

Tests used:
[1] = biological target: T1, human CD8αα homodimer, recombinant protein (Acro Biosystems) (human, UniProt P01732 22-182); assay: BLI steady state analysis of the data of FIG. 2D
T1 construct: also called CD8αα antigen; biotinylated CD8α recombinant protein (CDA-H82E3)
Description: The global fitting was performed with a 1:1 fitting model using GatorOne software as described below.
To assess affinity of whole antibodies, steady state analysis was used as the bivalent nature of both whole antibody and CD8α complicates kinetic analysis. 50 nM CD8α-His (that is, CD8α with a C-terminal oligohistidine tag; Acro) was immobilized on Ni-NTA sensor probes. Binding was analyzed with a three-fold antibody dilutions series: 60 nM, 20 nM, 6.67 nM, 2.22 nM, 0.74 nM, and 0.25 nM. The antigen-loaded sensors were incubated in the diluted solutions to capture the whole IgG antibody for 300 s to record the association phase. Sensors were incubated in the kinetic buffer for 900 s to record the dissociation phase. The spin speed was 1000 rpm for all steps except the antigen loading step which was 400 rpm to control density of the antigen. The temperature of the performed assays was at 30° C. during the association and dissociation phases. The sensor data were baseline subtracted and further analyzed in GatorOne software (version 2.10) to determine the equilibrium dissociation constants (KD) of the antibodies by fitting the signals of the steady states to the 1:1 binding model.

[2] = biological target: T1, human CD8αα homodimer, recombinant …; assay: BLI binding kinetic analysis, whole antibody, sample stressed at pH 8.5, 40 °C, 3 days
[3] = biological target: T1, human CD8αα homodimer, recombinant …; assay: BLI, whole antibody
[4] = biological target: T2, insulin (Sigma); assay: polyreactive ELISA, insulin coated, 100 nM antibody
T2 construct: Antigen of the polyreactivity ELISA
Description: Insulin ([…]; Sigma) and dsDNA ([…]; Sigma) were coated onto 96-well high-binding ELISA microplates (Corning) at 50 μL per well overnight at 4° C. Plates were blocked with PBS with 0.5% BSA (blocking buffer) at room temperature (RT) for 1 h, followed by three washes with PBST (PBS with 0.1% Tween-20). 50 μL of 100 nM antibody in blocking buffer was added to each well and incubated at RT for 1 h, followed by six washes with 100 μL of PBS. 50 μL of diluted anti-human IgG-horseradish peroxidase (HRP) conjugate (Jackson ImmunoResearch) was added to the wells and incubated for 1 h followed by another six washes. Finally, 50 μL of 3, 3′, 5, 5′-Tetramethylbenzidine (TMB) substrate (Fisher Scientific) was added to each well to develop the detection signal. The reactions were stopped by adding 50 μL of 2 M sulfuric acid to each well. The absorbance was measured at 450 nm using a multimode microplate reader. Ustekinumab as the control antibody with low polyreactivity and bococizumab as a highly polyreactive antibody control were also included in the polyreactive ELISA assessment.
The first assessment tested for low non-specific binding to dsDNA and insulin by ELISA. […] Thus, by this standard, none of the tested antibodies were polyreactive.

T1 sequence (P01732 22-182 limits assumed): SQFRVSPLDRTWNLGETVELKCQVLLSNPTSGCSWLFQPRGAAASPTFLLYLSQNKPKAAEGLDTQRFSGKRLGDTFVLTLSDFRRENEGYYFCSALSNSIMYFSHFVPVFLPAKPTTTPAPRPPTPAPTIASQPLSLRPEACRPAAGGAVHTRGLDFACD
T2 sequence (P01308 25-54, chain 1 of 2): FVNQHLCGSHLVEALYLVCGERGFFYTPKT
T2 sequence (P01308 90-110, chain 2 of 2): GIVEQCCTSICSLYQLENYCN

B1: CBD1033 whole antibody, human IgG1 with Fc-silencing mutations L234A, L235A and P329A (CBD1033-hIgG1-LALAPA) (antibody, V domains shown)
VH: QVQLVQSGAEVKKPGASVKVSCKASRYTFTDYNLHWVRQAPGQGLEWMGFIYPYNGGTGYAQKFQGRVTMTVDTSTSTAYMELSSLRSEDTAVYYCARDHRYNEGVSFDYWGQGTTVTVSS
VL: DIQLTQSPSSLSASVGDRATITCRASESVDGFGNSFMNWYQQKPGKAPKLLIYLASNLESGVPSRFSGSGSGTDFTLTISSVQPEDFATYYCQQNNEDPYTFGQGTKLEIKR
notes: On tLNPs the antibody was SATA-modified or AJICAP-thiolated (CBD1033.29) and conjugated to the LNP; also called CBD1033.3; CBD1033 IgG1
Kd [1]: 2.27 nM
Kd [2]: 2 nM
koff [2]: 0.00314 s⁻¹
kon [2]: 1.57e+06 M⁻¹ s⁻¹
koff [3]: 0.00307 s⁻¹
kon [3]: 1.85e+06 M⁻¹ s⁻¹
polyreactivity ELISA score [4]: 1
